Drawing on ChEMBL document CHEMBL1127417, “Multisubstrate inhibition of 4-hydroxybenzoate 3-monooxygenase” (J Med Chem, 1994), this text covers Km for one protein.

Substrate in data set [1]: O=C(O)c1ccc(O)cc1OCc1ccccc1
Put plainly: Michaelis-Menten constant against p-hydroxybenzoate hydroxylase (PHBH) from Pseudomonas fluorescence compared with NADPH. The following applies: Pseudomonas fluorescens.

Substrate in data set [2]: O=C(O)c1ccc(O)cc1OCc1ccccc1
Nature of the data set: Michaelis-Menten constant against p-hydroxybenzoate hydroxylase (PHBH) from Pseudomonas fluorescence compared with p-hydroxy benzoic acid. The following applies: Pseudomonas fluorescens.

B1: p-hydroxybenzoate hydroxylase (Pseudomonas fluorescens), P00438 (protein)
chain: MKTQVAIIGAGPSGLLLGQLLHKAGIDNVILERQTPDYVLGRIRAGVLEQGMVDLLREAGVDRRMARDGLVHEGVEIAFAGQRRRIDLKRLSGGKTVTVYGQTEVTRDLMEAREACGATTVYQAAEVRLHDLQGERPYVTFERDGERLRLDCDYIAGCDGFHGISRQSIPAERLKVFERVYPFGWLGLLADTPPVSHELIYANHPRGFALCSQRSATRSRYYVQVPLTEKVEDWSDERFWTELKARLPAEVAEKLVTGPSLEKSIAPLRSFVVEPMQHGRLFLAGDAAHIVPPTGAKGLNLAASDVSTLYRLLLKAYREGRGELLERYSAICLRRIWKAERFSWWMTSVLHRFPDTDAFSQRIQQTELEYYLGSEAGLATIAENYVGLPYEEIE
Regarding B1, the Km in data set [1] amounted to 57 µM; in data set [2] it was 21 µM.

What is called Km is the concentration of substrate that gives half-maximal velocity.
